Experimental findings from paper PMC3365590 (Journal of Molecular Biology, 2010) are described below.

The data set concerns the molecule itself. In words: SEC. Background: In gel filtration, larger molecules generally elute earlier.

One may read the stoichiometry N as the number of molecules, sites or subunits per partner or assembly.

B1: ROK fructokinase YdhR from Bacillus subtilis, native protein (size exclusion chromatography) (enzyme, B. subtilis, UniProt O05510 1-299, looked up)
chain: MLGGIEAGGTKFVCAVGREDGTIIDRIEFPTKMPDETIEKVIQYFSQFSLQAIGIGSFGPVDNDKTSQTYGTITATPKAGWRHYPFLQTVKNEMKIPVGFSTDVNAAALGEFLFGEAKGLDSCLYITIGTGIGAGAIVEGRLLQGLSHPEMGHIYIRRHPDDVYQGKCPYHGDCFEGLASGPAIEARWGKKAADLSDIAQVWELEGYYIAQALAQYILILAPKKIILGGGVMQQKQVFSYIYQYVPKIMNSYLDFSELSDDISDYIVPPRLGSNAGIIGTLVLAHQALQAEAASGEVRS
As for B1, the “stoichiometry N” value is 2.
